Experimental data published in patent US20200299407 (published 2020).

B1: VH23-DANG/VL0(rb) (antibody, V domains shown)
VH: QSMQESGPGLVKPSQTLSLTCTVSGFSLSSYAMSWIRQHPGKGLEWIGYIWSGGSTDYASWAKSRVTISKTSTTVSLKLSSVTAADTAVYYCARRYGTSYPDYGDANGFDPWGQGTLVTVSS
VL: AYDMTQTPASVEVAVGGTVTIKCQASQSISSYLSWYQQKPGQRPKLLIYRASTLASGVSSRFKGSGSGTQFTLTISGVECADAATYYCQQCYSSSNVDNTFGGGTEVVVKR
B2: Herceptarg CrossMab Trastuzumab arm (antibody, V domains shown)
VH: QVQLVQSGAEVKKPGASVKVSCKASGFNIKDTYIHWVRQAPGQGLEWMGRIYPTNGYTRYAQKFQGRVTMTRDTSISTAYMELSRLRSDDTAVYYCSRWGGEGFYAMDYWGQGTMVTVSS
VL: DIQLTQPPSVSVAPGQTARITCGASQDVSTAVAWYQQKPGQAPVLVVYSASFLYSGIPSRFSGSRSGTDFTLTISRVEAGDEADYYCQQHYTTPPTFGTGTKVTVLR
B3: Pertuzumab (antibody)
chain 1: EVQLVESGGGLVQPGGSLRLSCAASGFTFTDYTMDWVRQAPGKGLEWVADVNPNSGGSIYNQRFKGRFTLSVDRSKNTLYLQMNSLRAEDTAVYYCARNLGPSFYFDYWGQGTLVTVSS
chain 2: DIQMTQSPSSLSASVGDRVTITCKASQDVSIGVAWYQQKPGKAPKLLIYSASYRYTGVPSRFSGSGSGTDFTLTISSLQPEDFATYYCQQYYIYPYTFGQGTKVEIK
B4: Herceptarg D1-derived Pertuzumab arm (antibody, V domains shown)
VH: EVQLVESGGGLVQPGGSLRLSCAASGFTFNDYTMDWVRQAPGKGLEWVADVNPNSGGSIVNRRFKGRFTLSVDRSKNTLYLQMNSLRAEDTAVYYCARNLGPFFYFDYWGQGTLVTVSS
VL: DIQMTQSPSSLSASVGDRVTITCKASQDVSTAVAWYQQKPGKAPKLLIYSASFRYTGVPSRFSGSRSGTDFTLTISSLQPEDFATYYCQQHYTTPPTFGQGTKVEIK
B5: Herceptarg G2 Pertuzumab arm (antibody, V domains shown)
VH: EVQLVESGGGLVQPGGSLRLSCAASGFTFTDYTMDWVRQAPGKGLEWVADVNPNSGGYIVNRRFKGRFTLSVDRSKNTLYLQMNSLRAEDTAVYYCARNLGPSFYFDYWGQGTLVTVSS
VL: DIQMTQSPSSLSASVGDRVTITCKASQDVSTAVAWYQQKPGKAPKLLIYSASFRYTGVPSRFSGSRSGTDFTLTISSLQPEDFATYYCQQHYTTPPTFGQGTKVEIK
B6: Herceptarg E1 Pertuzumab arm (antibody, V domains shown)
VH: EVQLVESGGGLVQPGGSLRLSCAASGFTFADYTMDWVRQAPGKGLEWVADVNPNSGGSIYNQRFKGRFTLSVDRSKNTLYLQMNSLRAEDTAVYYCARNLGPWFYFDYWGQGTLVTVSS
VL: DIQMTQSPSSLSASVGDRVTITCKASQDVSTAVAWYQQKPGKAPKLLIYSASFRYTGVPSRFSGSRSGTDFTLTISSLQPEDFATYYCQQHYTTPPTFGQGTKVEIK
B7: Herceptarg CLC Trastuzumab arm (E1) (antibody, V domains shown)
VH: not shown
VL: DIQMTQSPSSLSASVGDRVTITCKASQDVSTAVAWYQQKPGKAPKLLIYSASFRYTGVPSRFSGSRSGTDFTLTISSLQPEDFATYYCQQHYTTPPTFGQGTKVEIK
B8: Herceptarg D1-derived Trastuzumab arm (antibody, V domains shown)
VH: not shown
VL: DIQMTQSPSSLSASVGDRVTITCKASQDVSTAVAWYQQKPGKAPKLLIYSASFRYTGVPSRFSGSRSGTDFTLTISSLQPEDFATYYCQQHYTTPPTFGQGTKVEIK
B9: Herceptarg G2 Trastuzumab arm (antibody, V domains shown)
VH: not shown
VL: DIQMTQSPSSLSASVGDRVTITCKASQDVSTAVAWYQQKPGKAPKLLIYSASFRYTGVPSRFSGSRSGTDFTLTISSLQPEDFATYYCQQHYTTPPTFGQGTKVEIK
B10: Herceptarg CrossMab Pertuzumab arm (antibody)
chain 1: not shown
chain 2: DIQMTQSPSSLSASVGDRVTITCKASQDVSIGVAWYQQKPGKAPKLLIYSASYRYTGVPSRFSGSGSGTDFTLTISSLQPEDFATYYCQQYYIYPYTFGQGTKVEIKSSASTKGPSVFPLAPSSKSTSGGTAALGCLVKDYFPEPVTVSWNSGALTSGVHTFPAVLQSSGLYSLSSVVTVPSSSLGTQTYICNVNHKPSNTKVDKKVEPKSC

Experiments:
[1] = molecular target: human transferrin receptor (human, UniProt P02786); test: SPR
[2] = molecular target: Her2 ECD (Pertuzumab KO)-Fc knob (human); test: SPR, 25C
[3] = molecular target: HER2 ECD (aa 1-629 mature) (human); test: SPR
[4] = molecular target: Her2 ECD (Pertuzumab KO)-Fc knob (human); test: SPR
[5] = molecular target: Her2 ECD (Trastuzumab KO)-Fc knob (human); test: SPR
[6] = molecular target: Her2 ECD (Trastuzumab KO)-Fc knob (human); test: SPR, 25C

human transferrin receptor, sequence (P02786 89-760): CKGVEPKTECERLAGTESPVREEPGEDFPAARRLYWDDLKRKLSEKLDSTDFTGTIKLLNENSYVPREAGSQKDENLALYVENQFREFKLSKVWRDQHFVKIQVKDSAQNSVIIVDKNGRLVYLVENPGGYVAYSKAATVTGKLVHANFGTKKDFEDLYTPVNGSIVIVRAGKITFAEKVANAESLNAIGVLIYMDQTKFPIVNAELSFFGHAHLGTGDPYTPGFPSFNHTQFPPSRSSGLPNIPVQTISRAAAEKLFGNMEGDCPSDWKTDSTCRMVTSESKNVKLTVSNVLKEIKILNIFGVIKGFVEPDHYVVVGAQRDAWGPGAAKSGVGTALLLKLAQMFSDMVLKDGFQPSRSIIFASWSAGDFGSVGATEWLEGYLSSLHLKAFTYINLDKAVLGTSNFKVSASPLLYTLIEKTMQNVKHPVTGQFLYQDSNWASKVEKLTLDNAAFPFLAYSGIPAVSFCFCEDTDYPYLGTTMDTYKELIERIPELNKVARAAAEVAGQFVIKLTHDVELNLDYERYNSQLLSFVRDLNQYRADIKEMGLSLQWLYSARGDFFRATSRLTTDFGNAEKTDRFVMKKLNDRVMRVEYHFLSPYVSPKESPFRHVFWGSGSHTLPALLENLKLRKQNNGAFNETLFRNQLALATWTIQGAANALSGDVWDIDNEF

Row | Kd [2] | Kd [6] | other results | Binder
1 |  |  | koff [1]: 0.000338 s⁻¹ | B1
2 | 0.8 nM |  |  | B2
3 |  |  | Kd [3]: 0.147 nM; binding result [4]: no binding; Kd [5]: 0.62 nM | B3
4 |  | 0.16 nM |  | B4
5 |  | 9.65 nM |  | B5
6 |  | 1.32 nM |  | B6
7 | 0.72 nM |  |  | B7
8 | 0.6 nM |  |  | B8
9 | 1.82 nM |  |  | B9
10 |  | 0.84 nM |  | B10
